Results from patent US20240199757A1.

Molecular target: T1, human NT5E expressed on MDA-MB-231 cells (human) (UniProt P21589)
T1 sequence (looked up): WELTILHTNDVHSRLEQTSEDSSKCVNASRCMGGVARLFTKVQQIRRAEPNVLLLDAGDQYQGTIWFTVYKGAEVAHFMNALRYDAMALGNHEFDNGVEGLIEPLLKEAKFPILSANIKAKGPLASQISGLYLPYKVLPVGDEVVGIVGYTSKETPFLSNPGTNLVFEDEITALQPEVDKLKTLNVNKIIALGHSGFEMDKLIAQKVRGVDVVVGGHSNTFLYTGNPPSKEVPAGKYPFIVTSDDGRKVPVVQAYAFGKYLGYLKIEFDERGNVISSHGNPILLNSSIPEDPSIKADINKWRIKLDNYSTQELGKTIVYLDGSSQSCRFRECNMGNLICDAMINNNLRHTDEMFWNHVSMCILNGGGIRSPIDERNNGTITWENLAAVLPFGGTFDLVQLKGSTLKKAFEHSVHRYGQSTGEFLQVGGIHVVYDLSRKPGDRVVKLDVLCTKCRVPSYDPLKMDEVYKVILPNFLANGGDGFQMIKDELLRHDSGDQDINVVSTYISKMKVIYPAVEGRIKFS
Assay: cell-based or functional assay

IC50 of NT5E activity on MDA-MB-231 cells, no ATP: 0.6 nM
IC50 of NT5E activity on MDA-MB-231 cells, with ATP: 1.1 nM
maximal inhibition of NT5E on MDA-MB-231 cells: 70%
Substance: BMS986179 IgG (antibody)
